B1: ClpX(E183Q) from Listeria monocytogenes (natural protein)
chain: not shown
B2: ClpP2(S98A) from Listeria monocytogenes (natural protein)
chain: not shown

Assays:
cryo-EM structure = molecular target: the molecule itself; experiment: cryo-EM structure
[1] = molecular target: B1; experiment: HDX-MS

Row | Binder | stoichiometry N (cryo-EM structure) | binding result [1]
1 | B1 | 6 | –
2 | B2 | 7 | binds

Reference: PMC6783313 (Nature structural & molecular biology, 2019)
